The text below walks through data of publication PMC314469, “Protein Interaction Networks by Proteome Peptide Scanning” (PLoS Biology, 2004).

T1: amphyphisin SH3 (AMPH_HUMAN), P49418
T1 chain: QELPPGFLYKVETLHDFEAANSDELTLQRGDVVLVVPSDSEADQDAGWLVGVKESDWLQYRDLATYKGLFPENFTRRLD

In one assay the target is endophilin SH3 (SH3G2_HUMAN), Q99962. Put plainly: SPOT array.
Molecule SQGPPPRPGKPEGP [Q9UCT9 1-14] had a normalised SPOT signal, Boehringer light units (BLU); mean over the file's lines of this peptide of 3230.

For the molecule SQSFIIRPQKEGER [Q05397 355-368], the normalised SPOT signal, Boehringer light units (BLU); mean over the file's lines of this peptide was found to be 87.4.

As for SSSAPRRPSSLQSL [P39880 1446-1459], the normalised SPOT signal, Boehringer light units (BLU); mean over the file's lines of this peptide amounted to 1050.

As to SQPGPAKPPAQPSG [Q9Y6V0 287-301], the normalised SPOT signal, Boehringer light units (BLU); mean over the file's lines of this peptide is 130.

Consider SSEEPRRPLRSDMV [Q9H6D1 6-19], for which the normalised SPOT signal, Boehringer light units (BLU); mean over the file's lines of this peptide stood at 110.

On to SRGPPRRPPRSVKL [Q96DR3 69-83], for which the normalised SPOT signal, Boehringer light units (BLU); mean over the file's lines of this peptide turned out to be 10200.

Molecule SSDWLRRPLGEDNQ [Q9Y6S1 96-109] showed a normalised SPOT signal, Boehringer light units (BLU); mean over the file's lines of this peptide of 37.4.

On to SDGNPRRPSPVLRH [P51172 134-147], for which the normalised SPOT signal, Boehringer light units (BLU); mean over the file's lines of this peptide is 577.

As for SRSPPKKPPKRTSS [O60585 365-379], the normalised SPOT signal, Boehringer light units (BLU); mean over the file's lines of this peptide is 2210.

SQGPLQRPSRLVFT [Q9UK00 141-154] showed a normalised SPOT signal, Boehringer light units (BLU); mean over the file's lines of this peptide of 69.8.

SSGPPPKPPVSSGS [Q9NR59 803-817] gave a normalised SPOT signal, Boehringer light units (BLU); mean over the file's lines of this peptide of 122.

In the case of SQQNFHRPVKVRKK [Q9UI45 537-550], the normalised SPOT signal, Boehringer light units (BLU); mean over the file's lines of this peptide was determined as 99.7.

In turn, SSPGPKRPGNTLRK [O75962 1703-1716] showed a normalised SPOT signal, Boehringer light units (BLU); mean over the file's lines of this peptide of 619.

For SRLHFGRPRRADYL [Q13629 53-66], the normalised SPOT signal, Boehringer light units (BLU); mean over the file's lines of this peptide came to 202.

Consider SRNIFKRPLGSRIE [P12111 1320-1333], for which the normalised SPOT signal, Boehringer light units (BLU); mean over the file's lines of this peptide was 0.9.

Molecule SRKNLKRPIAHLPS [Q13112 270-283] registered a normalised SPOT signal, Boehringer light units (BLU); mean over the file's lines of this peptide of 33.5.

As for SQEILRRPIVASEL [Q9UHW3 40-53], the normalised SPOT signal, Boehringer light units (BLU); mean over the file's lines of this peptide turned out to be 53.9.

SSTFLQRPIRKPSK [Q9UI27 293-306] returned a normalised SPOT signal, Boehringer light units (BLU); mean over the file's lines of this peptide of 341.

In turn, SSSGPKRPQDKVAV [P21399 369-382] yielded a normalised SPOT signal, Boehringer light units (BLU); mean over the file's lines of this peptide of 50.4.

With SQGPPPRPGKPEGS [Q04118 215-228], the normalised SPOT signal, Boehringer light units (BLU); mean over the file's lines of this peptide was found to be 132.

Molecule SSKPIKRPVLDPFI [Q96AA8 422-435] came in with a normalised SPOT signal, Boehringer light units (BLU); mean over the file's lines of this peptide of 189.

As to SQQPPSRPPHLPVE [Q9UPQ2 54-68], the normalised SPOT signal, Boehringer light units (BLU); mean over the file's lines of this peptide was determined as 775.

For the molecule SSRDLSRPPKKGEL [O94930 369-382], the normalised SPOT signal, Boehringer light units (BLU); mean over the file's lines of this peptide is 109.

In turn, SSPLLKRPVRTQAV [Q9Y5M0 381-394] showed a normalised SPOT signal, Boehringer light units (BLU); mean over the file's lines of this peptide of 195.

SQRRPRRPPTVFRL [Q96Q00 325-339] showed a normalised SPOT signal, Boehringer light units (BLU); mean over the file's lines of this peptide of 10900.

Turning to SSPEPPRPAKRPRR [Q9P2A7 954-967], the normalised SPOT signal, Boehringer light units (BLU); mean over the file's lines of this peptide is 181.

On to SRLTLLRPEKDGEA [Q9H7S7 483-496], for which the normalised SPOT signal, Boehringer light units (BLU); mean over the file's lines of this peptide is 185.

In the case of SSTLPQKPPYSFID [Q9H0N0 213-227], the normalised SPOT signal, Boehringer light units (BLU); mean over the file's lines of this peptide was found to be 27.3.

In turn, SQALPPRPPPPAPV [Q13330 692-706] had a normalised SPOT signal, Boehringer light units (BLU); mean over the file's lines of this peptide of 2540.

On to SSNTIRRPRNYSVG [O60825 472-485], for which the normalised SPOT signal, Boehringer light units (BLU); mean over the file's lines of this peptide stood at 7.4.

In the case of SSHSPYRPPTNYRN [Q8TEB6 103-117], the normalised SPOT signal, Boehringer light units (BLU); mean over the file's lines of this peptide stood at 681.

SQGPPPRPGKPEGQ [Q04118 68-81] gave a normalised SPOT signal, Boehringer light units (BLU); mean over the file's lines of this peptide of 103.

SQIPPQRPQRDQRV [Q13283 290-303] gave a normalised SPOT signal, Boehringer light units (BLU); mean over the file's lines of this peptide of 15300.

Regarding SQAFIYRPIRQRVY [Q9NU43 22-35], the normalised SPOT signal, Boehringer light units (BLU); mean over the file's lines of this peptide stood at 102.

For the molecule SSGILKRPQTLAIP [Q9Y2W3 232-245], the normalised SPOT signal, Boehringer light units (BLU); mean over the file's lines of this peptide worked out at 10.4.

In turn, SSRRPVRPGRRGLG [Q14160 1547-1560] returned a normalised SPOT signal, Boehringer light units (BLU); mean over the file's lines of this peptide of 1850.

SQNEPKRPMSGEYG [Q9Y6X4 283-296] displayed a normalised SPOT signal, Boehringer light units (BLU); mean over the file's lines of this peptide of 21.5.

Turning to SREGPARPYRLKPG [Q9ULL4 1157-1170], the normalised SPOT signal, Boehringer light units (BLU); mean over the file's lines of this peptide turned out to be 1200.

The next assay has as its target T1, amphyphisin SH3 (AMPH_HUMAN), P49418. Put plainly: SPOT array.
For SQGPPPRPGKPEGP [Q9UCT9 1-14], the normalised SPOT signal, Boehringer light units (BLU); mean over the file's lines of this peptide came out at 106.

Molecule SQSFIIRPQKEGER [Q05397 355-368] came in with a normalised SPOT signal, Boehringer light units (BLU); mean over the file's lines of this peptide of 118.

Turning to SSSAPRRPSSLQSL [P39880 1446-1459], the normalised SPOT signal, Boehringer light units (BLU); mean over the file's lines of this peptide is 37.2.

Regarding SQPGPAKPPAQPSG [Q9Y6V0 287-301], the normalised SPOT signal, Boehringer light units (BLU); mean over the file's lines of this peptide stood at 78.5.

SSEEPRRPLRSDMV [Q9H6D1 6-19]: the normalised SPOT signal, Boehringer light units (BLU); mean over the file's lines of this peptide is 1890.

SRGPPRRPPRSVKL [Q96DR3 69-83]: the normalised SPOT signal, Boehringer light units (BLU); mean over the file's lines of this peptide came out at 20600.

For SSDWLRRPLGEDNQ [Q9Y6S1 96-109], the normalised SPOT signal, Boehringer light units (BLU); mean over the file's lines of this peptide stood at 43.6.

Turning to SDGNPRRPSPVLRH [P51172 134-147], the normalised SPOT signal, Boehringer light units (BLU); mean over the file's lines of this peptide is 60.5.

Molecule SRSPPKKPPKRTSS [O60585 365-379] had a normalised SPOT signal, Boehringer light units (BLU); mean over the file's lines of this peptide of 236.

Turning to SQGPLQRPSRLVFT [Q9UK00 141-154], the normalised SPOT signal, Boehringer light units (BLU); mean over the file's lines of this peptide was found to be 1370.

In the case of SSGPPPKPPVSSGS [Q9NR59 803-817], the normalised SPOT signal, Boehringer light units (BLU); mean over the file's lines of this peptide turned out to be 81.4.

SQQNFHRPVKVRKK [Q9UI45 537-550] had a normalised SPOT signal, Boehringer light units (BLU); mean over the file's lines of this peptide of 52.5.

SSPGPKRPGNTLRK [O75962 1703-1716] displayed a normalised SPOT signal, Boehringer light units (BLU); mean over the file's lines of this peptide of 51.9.

As to SRLHFGRPRRADYL [Q13629 53-66], the normalised SPOT signal, Boehringer light units (BLU); mean over the file's lines of this peptide came out at 842.

Molecule SRNIFKRPLGSRIE [P12111 1320-1333] came in with a normalised SPOT signal, Boehringer light units (BLU); mean over the file's lines of this peptide of 30.4.

Molecule SRKNLKRPIAHLPS [Q13112 270-283] displayed a normalised SPOT signal, Boehringer light units (BLU); mean over the file's lines of this peptide of 60.1.

Regarding SQEILRRPIVASEL [Q9UHW3 40-53], the normalised SPOT signal, Boehringer light units (BLU); mean over the file's lines of this peptide stood at 21.1.

In the case of SSTFLQRPIRKPSK [Q9UI27 293-306], the normalised SPOT signal, Boehringer light units (BLU); mean over the file's lines of this peptide amounted to 4730.

In the case of SSSGPKRPQDKVAV [P21399 369-382], the normalised SPOT signal, Boehringer light units (BLU); mean over the file's lines of this peptide was 50.5.

Molecule SQGPPPRPGKPEGS [Q04118 215-228] registered a normalised SPOT signal, Boehringer light units (BLU); mean over the file's lines of this peptide of 103.

SSKPIKRPVLDPFI [Q96AA8 422-435] had a normalised SPOT signal, Boehringer light units (BLU); mean over the file's lines of this peptide of 35.4.

SQQPPSRPPHLPVE [Q9UPQ2 54-68] yielded a normalised SPOT signal, Boehringer light units (BLU); mean over the file's lines of this peptide of 45.1.

For SSRDLSRPPKKGEL [O94930 369-382], the normalised SPOT signal, Boehringer light units (BLU); mean over the file's lines of this peptide stood at 119.

With SSPLLKRPVRTQAV [Q9Y5M0 381-394], the normalised SPOT signal, Boehringer light units (BLU); mean over the file's lines of this peptide was 1640.

Take SQRRPRRPPTVFRL [Q96Q00 325-339]: the normalised SPOT signal, Boehringer light units (BLU); mean over the file's lines of this peptide is 1550.

The molecule SSPEPPRPAKRPRR [Q9P2A7 954-967] returned a normalised SPOT signal, Boehringer light units (BLU); mean over the file's lines of this peptide of 614.

The molecule SRLTLLRPEKDGEA [Q9H7S7 483-496] displayed a normalised SPOT signal, Boehringer light units (BLU); mean over the file's lines of this peptide of 214.

SSTLPQKPPYSFID [Q9H0N0 213-227] registered a normalised SPOT signal, Boehringer light units (BLU); mean over the file's lines of this peptide of 56.1.

In turn, SQALPPRPPPPAPV [Q13330 692-706] came in with a normalised SPOT signal, Boehringer light units (BLU); mean over the file's lines of this peptide of 44.7.

SSNTIRRPRNYSVG [O60825 472-485] yielded a normalised SPOT signal, Boehringer light units (BLU); mean over the file's lines of this peptide of 31.8.

For SSHSPYRPPTNYRN [Q8TEB6 103-117], the normalised SPOT signal, Boehringer light units (BLU); mean over the file's lines of this peptide turned out to be 51.9.

SQGPPPRPGKPEGQ [Q04118 68-81]: the normalised SPOT signal, Boehringer light units (BLU); mean over the file's lines of this peptide turned out to be 120.

The molecule SQIPPQRPQRDQRV [Q13283 290-303] showed a normalised SPOT signal, Boehringer light units (BLU); mean over the file's lines of this peptide of 14100.

Turning to SQAFIYRPIRQRVY [Q9NU43 22-35], the normalised SPOT signal, Boehringer light units (BLU); mean over the file's lines of this peptide came to 621.

SSGILKRPQTLAIP [Q9Y2W3 232-245] showed a normalised SPOT signal, Boehringer light units (BLU); mean over the file's lines of this peptide of 71.5.

As to SSRRPVRPGRRGLG [Q14160 1547-1560], the normalised SPOT signal, Boehringer light units (BLU); mean over the file's lines of this peptide is 7270.

SQNEPKRPMSGEYG [Q9Y6X4 283-296] gave a normalised SPOT signal, Boehringer light units (BLU); mean over the file's lines of this peptide of 17.

As to SREGPARPYRLKPG [Q9ULL4 1157-1170], the normalised SPOT signal, Boehringer light units (BLU); mean over the file's lines of this peptide came to 1270.
